This test deals with Ancylostoma ceylanicum phytochelatin synthase (Ancylostoma ceylanicum). The test is described as follows: SEC. On the technique in general: In gel filtration, larger molecules generally elute earlier.

The stoichiometry N is the number of molecules, sites or subunits per partner or assembly.

As to “Ancylostoma ceylanicum phytochelatin synthase (enzyme)”, the stoichiometry N stood at 2.

For the origin of these results see PMC3823645.
